Reference: US20170073408A1 (Amgen, published 2017)
Substitutions are numbered along the chain they refer to.

T1: activin B (UniProt P09529 293-407)
T1 construct: Bought (R & D Systems)
T1 sequence (looked up): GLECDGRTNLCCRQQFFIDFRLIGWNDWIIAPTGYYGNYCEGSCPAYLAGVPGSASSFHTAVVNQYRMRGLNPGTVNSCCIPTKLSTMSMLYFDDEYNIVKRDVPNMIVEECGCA

T2: BMP4 (UniProt P12644 293-408)
T2 construct: Bought
T2 sequence (looked up): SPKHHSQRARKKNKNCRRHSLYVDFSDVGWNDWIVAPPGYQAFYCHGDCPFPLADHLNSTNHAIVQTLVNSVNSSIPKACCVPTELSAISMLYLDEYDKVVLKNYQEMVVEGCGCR

T3: GDF-8 (UniProt O14793 267-375)
T3 construct: Bought
T3 sequence (looked up): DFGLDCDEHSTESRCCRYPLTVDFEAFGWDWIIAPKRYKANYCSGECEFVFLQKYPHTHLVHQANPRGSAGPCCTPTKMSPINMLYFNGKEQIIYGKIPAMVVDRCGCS

T4: GDF-11 (UniProt O95390 299-407)
T4 construct: Bought
T4 sequence (looked up): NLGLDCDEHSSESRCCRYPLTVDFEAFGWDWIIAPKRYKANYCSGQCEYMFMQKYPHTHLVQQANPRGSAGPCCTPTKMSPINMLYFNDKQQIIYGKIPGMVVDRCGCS

T5: TGF-β-3 (UniProt P10600 301-412)
T5 construct: Bought
T5 sequence (looked up): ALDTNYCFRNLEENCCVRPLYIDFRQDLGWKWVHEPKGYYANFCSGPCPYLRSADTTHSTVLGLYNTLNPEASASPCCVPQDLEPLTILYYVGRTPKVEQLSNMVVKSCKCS

T6: A/B13-39
T6 construct: also called Activin A 13/39 B
T6 activin A/B chimeric subunit: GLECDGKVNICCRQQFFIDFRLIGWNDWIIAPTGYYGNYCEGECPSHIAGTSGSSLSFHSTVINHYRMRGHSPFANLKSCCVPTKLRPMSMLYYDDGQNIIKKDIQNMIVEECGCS

B1: recombinant human activin A (mature) (ligand)
chain: T6 activin A/B chimeric subunit with R13K, Q14K, I18V, D19S, R21K, L22D, T33S, Y36H, G37A
notes: also called r-HuActivin A; rhActivin A
B2: anti-activin A monoclonal antibody A1 (antibody, human IgG2, lambda, V domains shown)
VH: QVQLVQSGAEVKKPGASVKVSCKASGYTFTSYGLSWVRQAPGQGLEWMGWIIPYNGNTNSAQKLQGRVTMTTDTSTSTAYMELRSLRSDDTAVYFCARDRDYGVNYDAFDIWGQGTMVTVSS
VL: not shown
notes: Fully human antibody from XenoMouse hybridoma (strains giving IgG2 kappa or IgG4 kappa); also called L1H1; Mab A1

Experiments:
[1] = target: T7, anti-activin A monoclonal antibody A2; assay: KinExA solution equilibrium, antibody A2 (A30) fixed at 30 pM
T7 construct: Fully human antibody from XenoMouse hybridoma; also called L2H2
Method: (§1) Solution-based equilibrium-binding assays using KinExA™ technology (Sapidyne Instruments, Inc.) were used to determine the dissociation equilibrium (KD) of activin A binding to antibody molecules. This solution-based assay is considered to be more sensitive than the BIAcore assay in some instances. Reacti-Gel™ 6× was pre-coated with about 50 μg/ml activin A overnight, and then blocked with BSA. 30 pM and 100 pM of antibody samples were incubated with various concentrations (0.5 pM to 5 nM) of activin A in sample buffer at room temperature for 8 hours before being run through the activin A-coated beads. The amount of the bead-bound antibody was quantified by fluorescent (Cy5) labeled goat anti-human-Fc antibody at 1 mg/ml in superblock. The binding signal was proportional to the concentration of free antibody at equilibrium with a given activin A concentration. KD was obtained from the nonlinear regression of the competition curves using a dual-curve one-site homogeneous binding model provided in the KinEx ATM software (Sapidyne Instruments, Inc.). […] A2 and A3 bound to activin A at ˜15 pM and ˜8 pM, respectively.

A31-2 [2] = target: T8, A31-2; assay: KinExA solution equilibrium, antibody A31 fixed at 30 pM
T8 construct: bars A52-1, A31-2, A30-2) make A3 likely; not assigned here
Method: as §1

[3] = target: B2; assay: KinExA solution equilibrium, antibody A1 (A52) fixed at 30 pM
Method: as §1

A31-2 [4] = target: T8, A31-2; assay: KinExA solution equilibrium, antibody A31 fixed at 100 pM
Method: as §1

[5] = target: T7, anti-activin A monoclonal antibody A2; assay: KinExA solution equilibrium, antibody A2 (A30) fixed at 100 pM
Method: as §1

[6] = target: B2; assay: KinExA solution equilibrium, antibody A1 (A52) fixed at 100 pM
Method: as §1

[7] = target: B1; assay: BIAcore blocking assay, 1 nM activin A; competitor rhActivin RIIB/Fc chimera on chip
Method: (§2) Blocking assays were conducted on immobilized recombinant human activin RIB-Fc chimera surfaces, recombinant human activin RIIB-Fc chimera surfaces, and recombinant human RIIA-Fc chimera recombinant surfaces, as described in Example 5. Monoclonal antibodies A1, A2, AKA1, and AKA2 on each chimera surface were incubated with 1 nM activin A, and the relative binding response (%) was measured.

[8] = target: B1; assay: Biacore blocking: 1 nM Activin A + antibody over rhActRIB-Fc chimera surface. No unit in the drawn table; M by Table 7, which prints this value rounded as 0.29 nM
activin B = target: T1, activin B; assay: affinity analysis of Example 15 (antibody immobilized on a surface)
[9] = target: B1; assay: BIAcore blocking assay, 1 nM activin A; competitor rhActivin RIB/Fc chimera on chip
Method: as §2

[10] = target: B1; assay: cell-based or functional assay
[11] = target: B1; assay: affinity analysis of Example 15 (method of the KD not given)
BMP4 = target: T2, BMP4; assay: BIAcore, antibody pre-incubated with ligand, ActRIIB/Fc on chip
Method: (§3) These assays were performed using BlAcore® technology, to determine the selectivity of binding of antibodies A1, A2 and A3 to various activins and other TGF-β family members, including activin A, activin B, activin AB, inhibin A, GDF-8, GDF-11, TGF-β-1, TGF-β-3, and BMP4 (all from R & D Systems). […] Because BlAcore assays detect changes in the refractive index, the difference between the response detected with injection over the immobilized receptor surfaces compared with the response detected with injection over the control surface in the absence of any antibody represents the actual binding of the various ligands to the receptor. With pre-incubation of antibodies and activin and TGF-β molecules, a change (increase or decrease) in binding response indicates antibody binding to the TGFβ family of molecules. The antibodies all bound to activin A but not to activin B, GDF-8, GDF-11, TGF-β-1, TGF-β-3, and BMP4, thus indicating specificity for activin A.

TGF-β-1 = target: T9, TGF-β-1 (UniProt P01137 279-390); assay: as above
T9 construct: Bought
Method: as §3

GDF-8 = target: T3, GDF-8; assay: as above
Method: as §3

GDF-11 = target: T4, GDF-11; assay: as above
Method: as §3

TGF-β-3 = target: T5, TGF-β-3; assay: as above
Method: as §3

[12] = target: B1; assay: BIAcore blocking assay, 1 nM activin A; competitor rhActivin RIIA/Fc chimera on chip
Method: as §2

A/B13-39 = target: T6, A/B13-39; assay: Biacore blocking: 100 nM antibody + diluted conditioned medium (CM) of the ligand over ActRIB-Fc surface

T7 sequence (VH, as listed by the source, chain 1 of 2): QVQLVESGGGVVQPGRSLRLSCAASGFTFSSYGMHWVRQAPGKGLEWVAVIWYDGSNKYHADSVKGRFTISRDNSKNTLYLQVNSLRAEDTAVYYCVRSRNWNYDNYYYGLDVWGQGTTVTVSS
T7 sequence (VL, as listed by the source, chain 2 of 2): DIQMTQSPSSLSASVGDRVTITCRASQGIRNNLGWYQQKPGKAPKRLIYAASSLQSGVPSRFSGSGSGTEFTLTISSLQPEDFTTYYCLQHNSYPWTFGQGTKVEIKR
T9 sequence (P01137 279-390 limits assumed): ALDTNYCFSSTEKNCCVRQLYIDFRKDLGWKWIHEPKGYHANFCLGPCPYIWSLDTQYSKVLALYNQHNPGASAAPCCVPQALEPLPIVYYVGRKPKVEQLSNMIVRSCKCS

Binder | IC50 (read off the curve) [1] [nM] | IC50 (read off the curve) (A31-2 [2]) [nM] | IC50 (read off the curve) [3] [nM] | IC50 (read off the curve) (A31-2 [4]) [nM] | IC50 (read off the curve) [5] [nM] | IC50 (read off the curve) [6] [nM] | EC50 [7] [nM] | EC50 [8] [nM] | binding result (activin B) | EC50 [9] [nM] | Cell IC50 (nM); luciferase activity of C2C12/pMARE reporter cells, activin A fixed at 4 nM [10] [nM] | Kd [11] [nM] | binding result (BMP4) | binding result (TGF-β-1) | binding result (GDF-8) | binding result (GDF-11) | binding result (TGF-β-3) | EC50 [12] [nM] | binding result (A/B13-39)
B1 | ~0.04 | ~0.03 | ~0.02 | ~0.08 | ~0.1 | ~0.07 |  |  |  |  |  |  |  |  |  |  |  |  | 
B2 |  |  |  |  |  |  | 0.29 | 0.29 | no binding | 0.29 | < 3 | ~0.003 | no binding | no binding | no binding | no binding | no binding | 0.29 | no binding (tested: 100 nM)
